From US20260265392A1 (TSINGHUA UNIVERSITY, published 2026)

How the values were obtained:
[1] = biological target: T1, CXC motif chemokine receptor 4 (CXCR4) (human, UniProt P61073 1-352); experiment: immunofluorescence of endogenous CXCR4 on SJSA-1 cells with labelled fusion proteins; co-localization (FIG. 3A, 3B)
T1 construct: whole, on cells; In the assays CXCR4 is the endogenous receptor of human cells; also called chemokine receptor CXCR4; endogenous CXCR4
Text: (§1) Wherein, “Anti DR5” and “Anti CXCR4” respectively represent the fluorescence images of endogenous DR5 and CXCR4 obtained by immunofluorescence staining with DR5 antibody (Abcam, ab8416) and CXCR4 antibody (Protein Tech, 60042-1-Ig). […] The horizontal axis represents the relative distance along the straight path, and the vertical axis represents the relative fluorescence intensity measured at the corresponding position. […] From left to right, they correspond to treatment groups 1 to 3 listed in Example 2. […] The horizontal axis represents various recombinant protein treatment combinations with a final concentration of 100 nM. The vertical axis represents the fluorescence area corresponding to each spot.
(§2) The above recombinant protein combinations were added to the culture medium to a final concentration of 100 nM. The added culture medium was mixed, incubated at 37° C. for about 1 min, and then imaged by total internal reflection fluorescence microscopy (TIRF).

[2] = biological target: T2, recombinant protein (SUM)5-DNB (Alexa647 label in the imaging experiment (site not stated)); experiment: fluorescence imaging of SJSA-1 cells, 100 nM each; co-localization (FIG. 3A, 3B)
T2 construct: Fusion of a multivalent domain with a nanobody; also called (SUM)5-DNB (Green)
T2 sequence (chain, as listed by the source): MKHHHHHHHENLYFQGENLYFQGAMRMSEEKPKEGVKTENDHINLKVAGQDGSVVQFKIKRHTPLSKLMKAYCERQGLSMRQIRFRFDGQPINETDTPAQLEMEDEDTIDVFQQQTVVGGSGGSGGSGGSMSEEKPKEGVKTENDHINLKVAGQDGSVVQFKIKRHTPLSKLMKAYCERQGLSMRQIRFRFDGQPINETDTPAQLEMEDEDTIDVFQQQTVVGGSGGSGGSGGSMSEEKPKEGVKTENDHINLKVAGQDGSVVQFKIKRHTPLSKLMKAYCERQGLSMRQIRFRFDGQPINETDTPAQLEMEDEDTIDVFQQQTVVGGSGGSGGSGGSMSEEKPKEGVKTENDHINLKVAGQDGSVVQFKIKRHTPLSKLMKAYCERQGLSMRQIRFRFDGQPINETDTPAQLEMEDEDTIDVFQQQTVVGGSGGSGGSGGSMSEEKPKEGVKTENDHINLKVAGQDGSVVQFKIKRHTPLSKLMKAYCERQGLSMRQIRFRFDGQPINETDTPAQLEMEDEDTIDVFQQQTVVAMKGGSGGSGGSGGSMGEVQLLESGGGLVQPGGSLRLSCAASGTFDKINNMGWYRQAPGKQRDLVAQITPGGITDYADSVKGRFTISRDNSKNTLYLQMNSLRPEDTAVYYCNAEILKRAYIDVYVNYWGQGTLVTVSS
Text: as §1, §2

[3] = biological target: T1, CXC motif chemokine receptor 4 (CXCR4); experiment: laser confocal imaging of SJSA-1 cells: membrane puncta only with ligand-fused domains; the receptor was not stained in this example
Procedure: (§3) Human osteosarcoma SJSA-1 cells (purchased from ATCC (https://www.atcc.org/)) were treated with the above-labeled recombinant proteins or control solution, and then immediately subjected to laser confocal scanning microscopy imaging. The steps are as follows:
(§4) Human osteosarcoma cell line SJSA-1 was cultured in RMPI-1640 medium containing 10% fetal bovine serum (FBS, purchased from Gibco) and 1× penicillin-streptomycin (purchased from HyClone) to 70%-80% confluence. The following combinations of recombinant proteins were added to the culture medium at the same time: (1) (SIM)₆-R4L (Red) and (SUM)₅ (Green), (2) (SIM)₆ (Red) and (SUM)₅-TRAIL (Green), (3) (SIM)₆-R4L (Red) and (SUM)₅-TRAIL (Green), (4) (SIM)₆ (Red) and (SUM)₅ (Green), to a final concentration of 100 nM respectively. The culture medium after adding the recombinant protein was mixed, incubated at 37° C. for about 1 min, and then imaged using a NIKON AIR HD25 laser confocal microscope (purchased from Nikon, Inc.).

[4] = biological target: T3, multivalent domain (SUM)5 (Alexa647 label in the imaging experiment (site not stated)); experiment: laser confocal imaging of SJSA-1 cells with (SIM)6-R4L (Red) and (SUM)5 (Green), 100 nM each (combination 1, FIG. 2A); co-localization
T3 construct: also called (SUM)5 (Green)
T3 sequence (chain, as listed by the source): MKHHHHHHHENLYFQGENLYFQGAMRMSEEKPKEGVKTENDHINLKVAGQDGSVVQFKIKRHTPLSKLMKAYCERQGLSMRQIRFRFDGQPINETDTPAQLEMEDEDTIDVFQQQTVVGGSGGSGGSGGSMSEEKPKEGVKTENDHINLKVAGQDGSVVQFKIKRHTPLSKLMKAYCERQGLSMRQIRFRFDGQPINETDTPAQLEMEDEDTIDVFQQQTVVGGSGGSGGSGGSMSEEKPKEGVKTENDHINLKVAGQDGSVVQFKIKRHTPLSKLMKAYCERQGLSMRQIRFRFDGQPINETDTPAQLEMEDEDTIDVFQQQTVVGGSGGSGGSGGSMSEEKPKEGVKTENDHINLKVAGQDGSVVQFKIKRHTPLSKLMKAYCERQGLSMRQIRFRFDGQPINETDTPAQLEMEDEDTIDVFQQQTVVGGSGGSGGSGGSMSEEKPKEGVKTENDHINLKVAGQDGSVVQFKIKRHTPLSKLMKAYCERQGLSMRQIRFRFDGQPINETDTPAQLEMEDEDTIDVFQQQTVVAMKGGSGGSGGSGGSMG
Procedure: as §3, §4

[5] = biological target: T1, CXC motif chemokine receptor 4 (CXCR4); experiment: immunofluorescence of endogenous CXCR4 on SJSA-1 cells with labelled fusion proteins; co-localization (FIG. 5A, 5B)
Text: (§5) Wherein, “Anti-DR5” and “Anti-CXCR4” respectively represent the fluorescence images of endogenous DR5 and CXCR4 obtained by immunofluorescence staining with DR5 antibody (Abcam, Catalog No. ab8416) and CXCR4 antibody (Protein Tech, Catalog No. 60042-1-Ig). […] The horizontal axis represents the relative distance along the straight path, and the vertical axis represents the relative fluorescence intensity measured at the corresponding position. […] The horizontal axis represents various recombinant protein treatment combinations with a final concentration of 100 nM. The vertical axis represents the fluorescence area corresponding to each spot.
as §2
(§6) By the same method as in Example 2, the total internal reflection fluorescence microscopy (TIRF) imaging of the following recombinant protein combination against the human osteosarcoma cell line SJSA-1 was measured, and the results are shown in FIG. 5: [0136] Treatment group: combination of (SIM)₃-CNB (Red) and (SUM)₃-DNB (Green) [0137] Control group: combination of (SIM)₃ (Red) and (SUM)₃ (Green)

[6] = biological target: T4, recombinant protein (SUM)3-DNB (Alexa647 label in the imaging experiment only (site not stated); no label is stated for the apoptosis assays); experiment: fluorescence imaging of SJSA-1 cells; co-localization (FIG. 5A, 5B)
T4 construct: Fusion of a multivalent domain with a nanobody; also called (SUM)3-DNB (Green); fusion protein (SUM)3-DNB
T4 sequence (chain, as listed by the source): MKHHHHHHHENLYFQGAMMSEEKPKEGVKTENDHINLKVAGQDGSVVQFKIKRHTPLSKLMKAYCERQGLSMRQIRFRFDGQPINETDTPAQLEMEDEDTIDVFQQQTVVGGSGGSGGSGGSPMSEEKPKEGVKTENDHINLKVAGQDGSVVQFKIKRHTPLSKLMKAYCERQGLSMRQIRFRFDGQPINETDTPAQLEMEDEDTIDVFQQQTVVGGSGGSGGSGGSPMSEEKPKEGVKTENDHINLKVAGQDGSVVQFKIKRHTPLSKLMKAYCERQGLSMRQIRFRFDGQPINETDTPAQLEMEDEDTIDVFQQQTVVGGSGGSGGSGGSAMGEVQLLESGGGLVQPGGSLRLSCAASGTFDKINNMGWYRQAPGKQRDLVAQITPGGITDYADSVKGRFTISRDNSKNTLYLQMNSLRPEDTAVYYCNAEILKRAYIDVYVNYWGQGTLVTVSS
Text: as §5, §2, §6

T1 sequence (P61073 whole entry, the tested form may be a part): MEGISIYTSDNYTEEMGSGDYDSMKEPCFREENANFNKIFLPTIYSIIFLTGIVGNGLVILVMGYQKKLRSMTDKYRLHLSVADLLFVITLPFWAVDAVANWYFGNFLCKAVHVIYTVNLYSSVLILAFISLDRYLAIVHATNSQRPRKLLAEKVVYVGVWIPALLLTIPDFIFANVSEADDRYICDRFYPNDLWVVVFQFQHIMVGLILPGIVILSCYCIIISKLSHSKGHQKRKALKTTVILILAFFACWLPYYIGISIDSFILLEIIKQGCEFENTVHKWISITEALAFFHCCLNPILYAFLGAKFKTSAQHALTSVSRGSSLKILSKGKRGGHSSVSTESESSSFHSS

B1: recombinant protein (SIM)6-CNB (VHH)
chain: MKHHHHHHHENLYFQGAMSSKVDVIDLTIESSSDEEEDPPAKRGGSGGSGGSGGSKVDVIDLTIESSSDEEEDPPAKRGGSGGSGGSGGSKVDVIDLTIESSSDEEEDPPAKRGAMKGGSGGSGGSGGSMSSKVDVIDLTIESSSDEEEDPPAKRGGSVGSGGSGGSKVDVIDLTIESSSDEEEDPPAKRGGSGGSGGRGGSKVDVIDLTIESSSDEEEDPPAKRGAMRCWGGSGGSGGSGGSMGEVQLMESGGGLVQAGGSLRLSCAASGRTFNNYAMGWFRRAPKGEREFVAAITRSGVRSGVSAIYGDSVKDRFTISRDNAKNTLYLQMNSLKPEDTAVYTCAASAIGSGALRRFEYDYSGQGTQVTVSS
modifications: Alexa594 label in the imaging experiment (site not stated)
notes: Fusion of a multivalent domain with a nanobody; also called (SIM)6-CNB (Red)
binding result [1]: binds
binding result [2]: binds

B2: recombinant protein (SIM)6-R4L (ligand)
chain: MKHHHHHHHENLYFQGAMSSKVDVIDLTIESSSDEEEDPPAKRGGSGGSGGSGGSKVDVIDLTIESSSDEEEDPPAKRGGSGGSGGSGGSKVDVIDLTIESSSDEEEDPPAKRGAMKGGSGGSGGSGGSMSSKVDVIDLTIESSSDEEEDPPAKRGGSVGSGGSGGSKVDVIDLTIESSSDEEEDPPAKRGGSGGSGGRGGSKVDVIDLTIESSSDEEEDPPAKRGAMRCWGGSGGSGGSGGSMGMCYRKCRGGRRWCYQKCGGSGGSGGSGGS
modifications: Alexa594 label in the imaging experiment (site not stated)
notes: also called (SIM)6-R4L (Red)
binding result [3]: binds
binding result [4]: binds

B3: recombinant protein (SIM)3-CNB (VHH)
chain: MKHHHHHHHENLYFQGAMKVDVIDLTIESSSDEEEDPPAKRGGSGGSGGSGGSMMKVDVIDLTIESSSDEEEDPPAKRGGSGGSGGSGGSMMKVDVIDLTIESSSDEEEDPPAKRGGSGGSGGSGGSMGEVQLMESGGGLVQAGGSLRLSCAASGRTFNNYAMGWFRRAPKGEREFVAAITRSGVRSGVSAIYGDSVKDRFTISRDNAKNTLYLQMNSLKPEDTAVYTCAASAIGSGALRRFEYDYSGQGTQVTVSS
modifications: Alexa594 label in the imaging experiment (site not stated)
notes: Fusion of a multivalent domain with a nanobody; also called (SIM)3-CNB (Red); fusion protein (SIM)3-CNB
binding result [5]: binds
binding result [6]: binds
